The supplement of paper PMC9233669
Fewer inactive variants are shown than the library holds.

How the values were obtained:
[1] = test system: biotinyl-Phe-oxazolone; assay: self-aminoacylation, catalytic enhancement (BFO) (fold over background); higher = more active; k-Seq, kA / k0A0; sequences stand for … in GGGAAUGGAUCCACAUCUACGAAUUC…UUCACUGCAGACUUGACGAAGCUG
Summary of the method: (§1)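 Each biotinyl-aminoacyl-oxazolone, at 2–1250 μM, was incubated with mutagenized RNA pools (0.43 μM) carrying a 21-nt variable region. The 50 μL reactions contained HEPES/NaCl/KCl/MgCl2/CaCl2 buffer with 5% acetonitrile at pH 6.9–7.0 and ran for 90 minutes at room temperature. After streptavidin capture, RNA was measured by qPCR in triplicate and by Illumina sequencing, and catalytic enhancement was calculated as median kA over the uncatalyzed rate from a pseudo-first-order fit of per-sequence fraction reacted.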

[2] = test system: biotinyl-Ile-oxazolone; assay: self-aminoacylation, catalytic enhancement (BIO) (fold over background); higher = more active; k-Seq, kA / k0A0; sequences stand for … in GGGAAUGGAUCCACAUCUACGAAUUC…UUCACUGCAGACUUGACGAAGCUG
Summary of the method: as §1

[3] = test system: biotinyl-Met-oxazolone; assay: self-aminoacylation, catalytic enhancement (BMO) (fold over background); higher = more active; k-Seq, kA / k0A0; sequences stand for … in GGGAAUGGAUCCACAUCUACGAAUUC…UUCACUGCAGACUUGACGAAGCUG
Summary of the method: as §1

[4] = test system: biotinyl-Val-oxazolone; assay: self-aminoacylation, catalytic enhancement (BVO) (fold over background); higher = more active; k-Seq, kA / k0A0; sequences stand for … in GGGAAUGGAUCCACAUCUACGAAUUC…UUCACUGCAGACUUGACGAAGCUG
Summary of the method: as §1

[5] = test system: biotinyl-Leu-oxazolone; assay: self-aminoacylation, catalytic enhancement (BLO) (fold over background); higher = more active; k-Seq, kA / k0A0; sequences stand for … in GGGAAUGGAUCCACAUCUACGAAUUC…UUCACUGCAGACUUGACGAAGCUG
Summary of the method: as §1

[6] = test system: biotinyl-Trp-oxazolone; assay: self-aminoacylation, catalytic enhancement (BWO) (fold over background); higher = more active; k-Seq, kA / k0A0; sequences stand for … in GGGAAUGGAUCCACAUCUACGAAUUC…UUCACUGCAGACUUGACGAAGCUG
Summary of the method: as §1

| Sequence | self-aminoacylation [1] | self-aminoacylation [2] | self-aminoacylation [3] | self-aminoacylation [4] | self-aminoacylation [5] | self-aminoacylation [6] |
| --- | --- | --- | --- | --- | --- | --- |
| CUACUUCAAACGAUCGGUAUG [Fam1A.1 aminoacylation ribozyme variant] | 0.588 | 0.544 | 0.585 | 0.675 | 0.591 | 0.727 |
| CUACUUCAAACGAUCGGUCAG [Fam1A.1 aminoacylation ribozyme variant] | 0.808 | 0.621 | 0.36 | 0.535 | 0.566 | 0.625 |
| CUACUUCAAACGAUCGUUCUG [Fam1A.1 aminoacylation ribozyme variant] | 0.639 | 0.493 | 0.442 | 0.632 | 0.423 | 0.447 |
| CUACUUCAAACUAACGGUCUG [Fam1A.1 aminoacylation ribozyme variant] | 0.924 | 0.778 | 0.787 | 0.75 | 0.796 | 0.665 |
| CUACUUCAAACUAUCAGUCUG [Fam1A.1 aminoacylation ribozyme variant] | 1.25 | 1.06 | 0.975 | 1.05 | 0.801 | 0.813 |
| CUACUUCAAACUAUCCGUCUG [Fam1A.1 aminoacylation ribozyme variant] | 0.844 | 0.955 | 0.889 | 1.08 | 0.936 | 0.852 |
| CUACUUCAAACUAUCGGUCGG [Fam1A.1 aminoacylation ribozyme variant] | 0.997 | 1.05 | 1.02 | 0.893 | 1.01 | 1.05 |
| CUACUUCAAACUAUCGGUCUC [Fam1A.1 aminoacylation ribozyme variant] | 1.19 | 0.833 | 0.747 | 0.885 | 0.759 | 0.598 |
| CUACUUCAAACUAUCUGUCUG [Fam1A.1 aminoacylation ribozyme variant] | 1.09 | 0.869 | 0.846 | 0.867 | 0.767 | 0.738 |
| CUACUUCAAAGAAUCGGUCAG [Fam1A.1 aminoacylation ribozyme variant] | 1.48 | 0.652 | 0.574 | 0.658 | 0.601 | 0.818 |
| CUACUUCAAAGAAUCGGUCCG [Fam1A.1 aminoacylation ribozyme variant] | 0.351 | 0.718 | 0.638 | 0.607 | 0.866 | 0.384 |
| CUACUUCAAAGAAUCGGUCUG [Fam1A.1 aminoacylation ribozyme variant] | 6.52 | 0.777 | 0.759 | 0.76 | 0.883 | 4.78 |
| CUACUUCAAAGACUCGGUCUG [Fam1A.1 aminoacylation ribozyme variant] | 3.52 | 1.12 | 1.16 | 1.2 | 1.01 | 1.35 |
| CUACUUCAAAGAGUCGGUCUG [Fam1A.1 aminoacylation ribozyme variant] | 0.46 | 0.695 | 1.13 | 0.835 | 0.849 | 0.754 |
| CUACUUCAAAUAAUCGGUCGG [Fam1A.1 aminoacylation ribozyme variant] | 6.6 | 1.07 | 0.909 | 0.832 | 1.13 | 5.93 |
| CUACUUCAAAUAAUCGGUCUA [Fam1A.1 aminoacylation ribozyme variant] | 7.72 | 0.795 | 0.659 | 0.78 | 0.727 | 3.51 |
| CUACUUCAAAUUAUCGGUCUG [Fam1A.1 aminoacylation ribozyme variant] | 0.806 | 1.12 | 1.01 | 1.11 | 0.945 | 0.849 |
| CUACUUCAACCAAUCGAUCUG [Fam1A.1 aminoacylation ribozyme variant] | 1.98 | 0.763 | 0.62 | 0.665 | 0.598 | 1.04 |
| CUACUUCAACCAAUCGCUCUG [Fam1A.1 aminoacylation ribozyme variant] | 1.4 | 0.872 | 0.806 | 0.729 | 0.843 | 1.43 |
| CUACUUCAACCAAUCGGUCUG [Fam1A.1 aminoacylation ribozyme variant] | 33.1 | 0.988 | 1.07 | 1.04 | 1.48 | 18.7 |
| CUACUUCAACCAAUCUGUCUG [Fam1A.1 aminoacylation ribozyme variant] | 2.12 | 0.597 | 0.504 | 0.592 | 0.485 | 0.777 |
| CUACUUCAACCAGUCGGUCUG [Fam1A.1 aminoacylation ribozyme variant] | 0.542 | 0.712 | 0.662 | 0.833 | 0.788 | 0.564 |
| CUACUUCAAGCAAGCGGUCUG [Fam1A.1 aminoacylation ribozyme variant] | 0.897 | 1.12 | 0.867 | 0.854 | 0.958 | 0.849 |
| CUACUUCAAGCAAUCCGUCUG [Fam1A.1 aminoacylation ribozyme variant] | 1.86 | 1 | 0.833 | 1.17 | 0.941 | 1.25 |
| CUACUUCAAGCAAUCGGACUG [Fam1A.1 aminoacylation ribozyme variant] | 4.71 | 0.86 | 0.714 | 0.861 | 1.04 | 2.58 |
